Here are results for two molecules from patent US20200325214A1.

Test [1] addresses cynomolgus serum albumin (cynomolgus) (UniProt A2V9Z4). Put plainly: SPR, scDb, pH 5.5.
Test [2] concerns the target human serum albumin (human) (UniProt P02768). Kind of test: SPR, scDb, pH 5.5.
Test [3] concerns the target cynomolgus serum albumin (cynomolgus) (UniProt A2V9Z4). Kind of test: SPR, scDb, pH 7.4. Background: SPR reads the build-up and loss of mass on a sensor chip optically.
Test [4] has as its target human serum albumin (human) (UniProt P02768). Kind of test: SPR, scDb, pH 7.4.

B1: PRO462 (bispecific antibody, part only; not given: second specificity domains and linkers, V domains shown, not shown: another chain or arm of the molecule)
VL: DIQMTQSPSSLSASVGDRVTITCQSSESVYSNNQLSWYQQKPGQPPKLLIYDASDLASGVPSRFSGSGSGTDFTLTISSLQPEDFATYYCAGGFSSSSDTAFGGGTKLTVLG
VH: EVQLVESGGGLVQPGGSLRLSCAASGFSLSSNAMGWVRQAPGKGLEYIGIISVGGFTYYASWAKGRFTISRDNSKNTVYLQMNSLRAEDTATYFCARDRHGGDSSGAFYLWGQGTLVTVSS
Consider B1, for which the Kd (usually the constant that tells how readily two partners part at equilibrium) in test [1] worked out at 0.175 nM; in test [2] it was 0.371 nM; in test [4], 0.728 nM. Also, the koff – broadly, the first-order rate constant of dissociation – in test [1] is 0.000175 s⁻¹; in test [2], 0.000333 s⁻¹; in test [3] it was 0.000221 s⁻¹; in test [4], 0.000345 s⁻¹. The on-rate constant (kon) (as a rule, the rate constant with which the complex forms) in test [1] was 1e+06 M⁻¹ s⁻¹; in test [2] it was 897000 M⁻¹ s⁻¹; in test [3], 630000 M⁻¹ s⁻¹; in test [4] it was 474000 M⁻¹ s⁻¹.

B2: PRO480 (bispecific antibody, part only; not given: second specificity domains and linkers, V domains shown, not shown: another chain or arm of the molecule)
VL: DVVMTQSPSSLSASVGDRVTITCQASQIISSRSAWYQQKPGQPPKLLIYQASKLASGVPSRFSGSGSGTDFTLTISSLQPEDFATYYCQCTYIDSNFGAFGGGTKLTVLG
VH: EVQLVESGGGLVQPGGSLRLSCAASGFSFSSSYWICWVRQAPGKGLEWVGCVFTGDGTTYYASWAKGRFTISRDNSKNTVYLQMNSLRAEDTATYFCARPVSVYYYGMDLWGQGTLVTVSS
For B2, the Kd was determined as 4.82 nM in test [1], 2.3 nM in test [2] and 3.36 nM in test [4]. Besides, the off-rate constant (koff) amounted to 0.000373 s⁻¹ in test [1], 0.000173 s⁻¹ in test [2], 0.000549 s⁻¹ in test [3] and 0.000235 s⁻¹ in test [4]. Besides, the on-rate constant (kon) was 77600 M⁻¹ s⁻¹ in test [1], 75000 M⁻¹ s⁻¹ in test [2], 57000 M⁻¹ s⁻¹ in test [3] and 70100 M⁻¹ s⁻¹ in test [4].
